{"source": "patent US20200216495A1", "about": "(ADRX, published 2020)", "note": "Several values for one entry are separate records, joined by “and”; a condition that tells them apart may be missing. Identical values can stand only once. Square brackets hold non-standard residues; d marks the D form. Ends that are not written are not given here. dNle = CCCC[C@@H](N)C(=O)O", "data": [{"molecular_target": "Tau40 P301L protein (human)", "experiment": "cell-based or functional assay", "values": [{"binder": "[dF][dR][dI][dR][dI][dK][dH][dY]", "note": "[fririkhy (PEPTIDE ID NO: 114)]", "IC50, Tau40 assay (ThT)": "1.12 µM and 1.15 µM"}, {"binder": "[dL][dK][dI][dR][dI][dH][dY][dF]", "note": "[lkirihyf (PEPTIDE ID NO: 250)]", "IC50, Tau40 assay (ThT)": "1.11 µM"}, {"binder": "[dL][dK][dI][dR][dI][dR][dY][dH]", "note": "[lkiriryh (PEPTIDE ID NO: 194)]", "IC50, Tau40 assay (ThT)": "0.65 µM and 0.85 µM"}, {"binder": "[dW][dW][dR][dV][dK][dL][dR][dW]", "note": "[wwrvklrw (PEPTIDE ID NO: 195)]", "IC50, Tau40 assay (ThT)": "0.66 µM"}, {"binder": "[dW][dK][dL][dW][dL][dR][dW] (not fully specified; printed as wklwlrw)", "note": "[wklwlrw (PEPTIDE ID NO: 91)]", "IC50, Tau40 assay (ThT)": "0.65 µM and 1.02 µM"}, {"binder": "[dW][dH][dL][dR][dL][dR][dH][dW]", "note": "[whlrlrhw (PEPTIDE ID NO: 109)]", "IC50, Tau40 assay (ThT)": "1.19 µM"}, {"binder": "[dL][dR][dI][dR][dI][dK][dH][dY]", "note": "[lririkhy (PEPTIDE ID NO: 145)]", "IC50, Tau40 assay (ThT)": "1.19 µM and 1.1 µM"}, {"binder": "[dL][dH][dL][dK][dI][dR][dY][dH]", "note": "[lhlkiryh (PEPTIDE ID NO: 410)]", "IC50, Tau40 assay (ThT)": "1.16 µM"}, {"binder": "[dY][dL][dK][dI][dR][dI][dH][dY]", "note": "[ylkirihy (PEPTIDE ID NO: 256)]", "IC50, Tau40 assay (ThT)": "1.19 µM"}, {"binder": "[dW][dW][dR][dF][dH][dW][dR]", "note": "[wwrfhwr (PEPTIDE ID NO: 43)]", "IC50, Tau40 assay (ThT)": "1.13 µM"}, {"binder": "[dE][dL][dK][dI][dR][dI][dH][dY]", "note": "[elkirihy (PEPTIDE ID NO: 253)]", "IC50, Tau40 assay (ThT)": "1.16 µM"}, {"binder": "[dR][dL][dK][dI][dR][dW]", "note": "[rlkirw (PEPTIDE ID NO: 23)]", "IC50, Tau40 assay (ThT)": "1.21 µM and 1.68 µM"}, {"binder": "[dF][dR][dL][dR][dI][dH][dW]", "note": "[frlrihw (PEPTIDE ID NO: 270)]", "IC50, Tau40 assay (ThT)": "1.2 µM and 1.47 µM"}, {"binder": "[dL][dK][dI][dR][dI][dH][dY][dH]", "note": "[lkirihyh (PEPTIDE ID NO: 147)]", "IC50, Tau40 assay (ThT)": "1.25 µM and 0.67 µM"}, {"binder": "[dL][dR][dI][dR][dL][dH][dH][dF]", "note": "[lrirlhhf (PEPTIDE ID NO: 146)]", "IC50, Tau40 assay (ThT)": "1.22 µM and 1.54 µM"}, {"binder": "[dW][dA][dL][dK][dV][dR][dW]", "note": "[walkvrw (PEPTIDE ID NO: 257)]", "IC50, Tau40 assay (ThT)": "1.25 µM"}, {"binder": "[dM][dR][dL][dK][dV][dR][dW]", "note": "[mrlkvrw (PEPTIDE ID NO: 254)]", "IC50, Tau40 assay (ThT)": "1.17 µM and 1.57 µM"}, {"binder": "[dL][dK][dI][dR][dI][dNle][dY]", "note": "[lkiriuy (PEPTIDE ID NO: 251)]", "IC50, Tau40 assay (ThT)": "1.12 µM"}, {"binder": "[dF][dR][dI][dR][dI][dH][dH][dW]", "note": "[fririhhw (PEPTIDE ID NO: 115)]", "IC50, Tau40 assay (ThT)": "1.24 µM and 1.31 µM"}, {"binder": "[dF][dR][dL][dK][dL][dR][dH][dW]", "note": "[frlklrhw (PEPTIDE ID NO: 116)]", "IC50, Tau40 assay (ThT)": "1.24 µM"}, {"binder": "[dF][dR][dL][dK][dI][dR][dH][dW]", "note": "[frlkirhw (PEPTIDE ID NO: 117)]", "IC50, Tau40 assay (ThT)": "1.15 µM and 1.2 µM"}, {"binder": "[dW][dR][dL][dK][dT][dR][dW]", "note": "[wrlktrw (PEPTIDE ID NO: 255)]", "IC50, Tau40 assay (ThT)": "1.17 µM"}, {"binder": "[dW][dL][dR][dV][dQ][dV][dK][dL][dW]", "note": "[wlrvqvklw (PEPTIDE ID NO: 416)]", "IC50, Tau40 assay (ThT)": "1.11 µM"}, {"binder": "[dW][dI][dK][dI][dR][dW]", "note": "[wikirw (PEPTIDE ID NO: 21)]", "IC50, Tau40 assay (ThT)": "1.12 µM and 1.21 µM"}]}]}
